Assay results: patent US20230038638A1, “COMPLEMENT FACTOR I-RELATED COMPOSITIONS AND METHODS” (published 2023)
Substitutions are numbered along the chain they refer to.

How the values were obtained:
[1] = biological target: T1, human C4b (human) (UniProt P0C0L4)
T1 sequence: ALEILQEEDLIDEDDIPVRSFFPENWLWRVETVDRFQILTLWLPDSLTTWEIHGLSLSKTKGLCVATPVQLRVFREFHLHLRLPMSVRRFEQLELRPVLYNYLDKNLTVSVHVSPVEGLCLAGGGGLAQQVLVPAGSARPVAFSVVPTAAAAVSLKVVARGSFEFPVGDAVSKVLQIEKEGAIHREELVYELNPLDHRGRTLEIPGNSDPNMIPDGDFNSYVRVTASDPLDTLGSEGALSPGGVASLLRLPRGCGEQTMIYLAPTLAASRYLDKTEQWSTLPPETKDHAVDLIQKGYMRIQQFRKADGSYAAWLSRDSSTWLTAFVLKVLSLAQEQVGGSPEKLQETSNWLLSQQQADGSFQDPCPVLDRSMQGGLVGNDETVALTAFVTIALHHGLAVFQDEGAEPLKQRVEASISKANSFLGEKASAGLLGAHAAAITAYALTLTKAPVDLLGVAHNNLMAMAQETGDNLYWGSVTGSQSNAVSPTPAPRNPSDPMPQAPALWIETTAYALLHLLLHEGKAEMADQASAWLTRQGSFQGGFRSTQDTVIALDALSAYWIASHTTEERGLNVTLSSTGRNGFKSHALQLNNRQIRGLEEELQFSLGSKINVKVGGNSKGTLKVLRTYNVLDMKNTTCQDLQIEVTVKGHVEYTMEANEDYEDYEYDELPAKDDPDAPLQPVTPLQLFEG

[2] = biological target: soluble human C3b (human) (UniProt P01024)
[3] = biological target: T1, human C4b (human); remark: listed apart in the source
[4] = biological target: soluble human C3b (human) (UniProt P01024); remark: listed apart in the source
[5] = biological target: T2, human C4b (human) (UniProt P0C0L5)
T2 sequence: T1 sequence with A151T, D317G, P364L, C365S, L368I, D369H, N420S, V451A, L454R, S530A

## CFI-HSA variant A405S (enzyme)
[1]
  C4c EC50 (nM): 353 nM
[2]
  iC3b EC50: 23.9 nM
[3]
  C4b Screen Ref Fold (fold of reference): 2.12
[4]
  iC3b Screen Ref Fold (fold of reference): 0.94

## CFI-HSA variant D341A (enzyme)
[1]
  C4c EC50 (nM): > 1000 nM
[2]
  iC3b EC50: 57.2 nM
[3]
  C4b Screen Ref Fold (fold of reference): 0.19
[4]
  iC3b Screen Ref Fold (fold of reference): 0.26

## CFI-HSA variant D420G (enzyme)
[1]
  C4c EC50 (nM): 63.6 nM
[2]
  iC3b EC50: 7 nM
[3]
  C4b Screen Ref Fold (fold of CFI-HSA wild type): 2.71
[4]
  iC3b Screen Ref Fold (fold of CFI-HSA wild type): 2.53

## CFI-HSA variant D425G (enzyme)
[1]
  C4c EC50: > 1000 nM
[2]
  iC3b EC50: 13.5 nM
[3]
  C4b Screen Ref Fold (fold of reference): 2.18
[4]
  iC3b Screen Ref Fold (fold of reference): 0.7

## CFI-HSA variant D425R; E457G; E461Q; N531G (enzyme)
[1]
  C4c EC50 (nM): 4 nM
[2]
  iC3b EC50: 2.2 nM
[3]
  C4b Screen Ref Fold (fold of CFI-HSA wild type): 4.25
[4]
  iC3b Screen Ref Fold (fold of CFI-HSA wild type): 1.9

## CFI-HSA variant E392G (enzyme)
[1]
  C4c EC50 (nM): 143 nM
[2]
  iC3b EC50: 9.6 nM
[3]
  C4b Screen Ref Fold (fold of CFI-HSA wild type): 1.3
[4]
  iC3b Screen Ref Fold (fold of CFI-HSA wild type): 1.66

## CFI-HSA variant E416A; E457G; E461Q; N531G (enzyme)
[1]
  C4c EC50 (nM): 26.1 nM
[2]
  iC3b EC50: 4.2 nM
[3]
  C4b Screen Ref Fold (fold of CFI-HSA wild type): 4.01
[4]
  iC3b Screen Ref Fold (fold of CFI-HSA wild type): 1.69

## CFI-HSA variant E416A; K504H (enzyme)
[1]
  C4c EC50 (nM): 168 nM
[2]
  iC3b EC50: 20.8 nM
[3]
  C4b Screen Ref Fold (fold of CFI-HSA wild type): 0.63
[4]
  iC3b Screen Ref Fold (fold of CFI-HSA wild type): 0.59

## CFI-HSA variant E416A; N422K; E457G; E461Q; Q467K; N531G (enzyme)
[1]
  C4c EC50 (nM): 4.4 nM
[2]
  iC3b EC50: 1.7 nM
[3]
  C4b Screen Ref Fold (fold of CFI-HSA wild type): 3.84
[4]
  iC3b Screen Ref Fold (fold of CFI-HSA wild type): 3.05

## CFI-HSA variant E457G; E461Q; E530Y; N531G; P558S (enzyme)
[1]
  C4c EC50 (nM): 21 nM
[2]
  iC3b EC50: 5.2 nM
[3]
  C4b Screen Ref Fold (fold of CFI-HSA wild type): 4.04
[4]
  iC3b Screen Ref Fold (fold of CFI-HSA wild type): 1.25

## CFI-HSA variant E457G; E461Q; F464Y; E530F; N531G; P558S (enzyme)
[1]
  C4c EC50 (nM): 18.1 nM
[2]
  iC3b EC50: 4.2 nM
[3]
  C4b Screen Ref Fold (fold of CFI-HSA wild type): 4.21
[4]
  iC3b Screen Ref Fold (fold of CFI-HSA wild type): 2.01

## CFI-HSA variant E457G; E461Q; F464Y; K504H; N531G (enzyme)
[1]
  C4c EC50 (nM): > 1000 nM
[2]
  iC3b EC50: 22.7 nM
[3]
  C4b Screen Ref Fold (fold of CFI-HSA wild type): 1.78
[4]
  iC3b Screen Ref Fold (fold of CFI-HSA wild type): 0.49

## CFI-HSA variant E457G; E461Q; R462K; F464Y; E530F; N531G; P558S (enzyme)
[1]
  C4c EC50 (nM): 21.4 nM
[2]
  iC3b EC50: 5.5 nM
[3]
  C4b Screen Ref Fold (fold of CFI-HSA wild type): 4.65
[4]
  iC3b Screen Ref Fold (fold of CFI-HSA wild type): 2.22

## CFI-HSA variant E457K (enzyme)
[1]
  C4c EC50 (nM): 135 nM
[2]
  iC3b EC50: 9.5 nM
[3]
  C4b Screen Ref Fold (fold of reference): 4.58
[4]
  iC3b Screen Ref Fold (fold of reference): 1.37

## CFI-HSA variant E457L (enzyme)
[1]
  C4c EC50 (nM): > 1000 nM
[2]
  iC3b EC50: 51.4 nM
[3]
  C4b Screen Ref Fold (fold of reference): 0.14
[4]
  iC3b Screen Ref Fold (fold of reference): 0.21

## CFI-HSA variant E457M (enzyme)
[1]
  C4c EC50 (nM): 482 nM
[2]
  iC3b EC50: 25.4 nM
[3]
  C4b Screen Ref Fold (fold of reference): 1.6
[4]
  iC3b Screen Ref Fold (fold of reference): 1.05

## CFI-HSA variant E457N (enzyme)
[1]
  C4c EC50 (nM): 215 nM
[2]
  iC3b EC50: 16.3 nM
[3]
  C4b Screen Ref Fold (fold of reference): 4.31
[4]
  iC3b Screen Ref Fold (fold of reference): 0.9

## CFI-HSA variant E457Q (enzyme)
[1]
  C4c EC50 (nM): 395 nM
[2]
  iC3b EC50: 19.8 nM
[3]
  C4b Screen Ref Fold (fold of reference): 1.8
[4]
  iC3b Screen Ref Fold (fold of reference): 1

## CFI-HSA variant E457R (enzyme)
[1]
  C4c EC50 (nM): 182 nM
[2]
  iC3b EC50: 10.5 nM
[3]
  C4b Screen Ref Fold (fold of reference): 4.6
[4]
  iC3b Screen Ref Fold (fold of reference): 1.42

## CFI-HSA variant E457S (enzyme)
[1]
  C4c EC50 (nM): 428 nM
[2]
  iC3b EC50: 21.3 nM
[3]
  C4b Screen Ref Fold (fold of reference): 0.81
[4]
  iC3b Screen Ref Fold (fold of reference): 1.07

## CFI-HSA variant E457T (enzyme)
[1]
  C4c EC50 (nM): > 1000 nM
[2]
  iC3b EC50: 10.4 nM
[3]
  C4b Screen Ref Fold (fold of reference): 1.34
[4]
  iC3b Screen Ref Fold (fold of reference): 1.5

## CFI-HSA variant E457V (enzyme)
[1]
  C4c EC50 (nM): 567 nM
[2]
  iC3b EC50: 40.6 nM
[3]
  C4b Screen Ref Fold (fold of reference): 0.99
[4]
  iC3b Screen Ref Fold (fold of reference): 0.8

## CFI-HSA variant E457W (enzyme)
[1]
  C4c EC50 (nM): > 1000 nM
[2]
  iC3b EC50: 110 nM
[3]
  C4b Screen Ref Fold (fold of reference): 0.09
[4]
  iC3b Screen Ref Fold (fold of reference): 0.15

## CFI-HSA variant E457Y (enzyme)
[1]
  C4c EC50 (nM): > 1000 nM
[2]
  iC3b EC50: 90.6 nM
[3]
  C4b Screen Ref Fold (fold of reference): 0.12
[4]
  iC3b Screen Ref Fold (fold of reference): 0.03

## CFI-HSA variant E461H (enzyme)
[1]
  C4c EC50 (nM): 134 nM
[2]
  iC3b EC50: 11.7 nM
[3]
  C4b Screen Ref Fold (fold of reference): 3.16
[4]
  iC3b Screen Ref Fold (fold of reference): 1.3

## CFI-HSA variant E461I (enzyme)
[1]
  C4c EC50 (nM): 100 nM
[2]
  iC3b EC50: 9.8 nM
[3]
  C4b Screen Ref Fold (fold of reference): 3.83
[4]
  iC3b Screen Ref Fold (fold of reference): 1.44

## CFI-HSA variant E461L (enzyme)
[1]
  C4c EC50 (nM): 87.5 nM
[2]
  iC3b EC50: 7.3 nM
[3]
  C4b Screen Ref Fold (fold of reference): 4.22
[4]
  iC3b Screen Ref Fold (fold of reference): 1.71

## CFI-HSA variant E461M (enzyme)
[1]
  C4c EC50 (nM): 148 nM
[2]
  iC3b EC50: 6.9 nM
[3]
  C4b Screen Ref Fold (fold of reference): 1.9
[4]
  iC3b Screen Ref Fold (fold of reference): 2.12

## CFI-HSA variant Y408L; P535G; D425K (enzyme)
[1]
  C4c EC50: > 1000 nM
[2]
  iC3b EC50: 19.7 nM
[5]
  C4b Screen Ref Fold (fold of CFI-HSA wild type): 0
[4]
  iC3b Screen Ref Fold (fold of CFI-HSA wild type): 0.56

## CFI-HSA variant Y408N (enzyme)
[1]
  C4c EC50 (nM): 710 nM
[2]
  iC3b EC50: 64.2 nM
[5]
  C4b Screen Ref Fold (fold vs CFI-HSA wild type): 0.09
[4]
  iC3b Screen Ref Fold (fold vs CFI-HSA wild type): 0.51

## CFI-HSA wild type (enzyme)
[1]
  C4c EC50 (nM): 299 nM
[2]
  iC3b EC50: 28.4 nM
[5]
  C4b Screen Ref Fold (fold vs CFI-HSA wild type): 1
[4]
  iC3b Screen Ref Fold (fold vs CFI-HSA wild type): 1

## WT; GGSSGG (SEQ ID NO: 6); CR1(ccp15-17) (enzyme)
[1]
  C4c EC50 (nM): 53.1 nM
[2]
  iC3b EC50: 31.9 nM
[5]
  C4b Screen Ref Fold (fold vs CFI-HSA wild type): 5.25
[4]
  iC3b Screen Ref Fold (fold vs CFI-HSA wild type): 0.04

B1: WT mouse CFI (enzyme)
chain: RSPSASDLPQEELVDQKCLLQKYTHRSCNKVFCQPWQRCIEGTCICKLPYQCPRAGTPVCAMNGRSYPTYCHQKSFECLHPEIKFSHNGTCAAEGKFNVSLIYGRTKTEGLVQVKLVDQDERMFICKNSWSMAEANVACVDLGFPLGVRDIQGSFNISGNLHINDTECLHVHCRGVETSLAECAFTKRRTELSNGLAGVVCYKQDADFPTSLSFQCVNGKHIPQEKACNGVNDCGDQSDELCCKGCRGNASLCKSGVCIPDQYKCNGEVDCITGEDESRCEEDRQQNIPKGLARSAQGEAEIETEETEMLTPGMDNERKRIKSLLPKLSCGVKRNTHTRRKRVIGGKPANVGDYPWQVAIKDGQRITCGGIYIGGCWILTAAHCVRPSRAHSYQVWTALLDWLKPNSQLGIQTVKRVIVHEKYNGATFQNDIALIEMKMHTGKKECELPNSVPACVPWSPYLFQPNDRCIISGWGRGKDNQKVYSLRWGEVDLIGNCSQFYPDRYYEKEMQCAGTRDGSIDACKGDSGGPLVCEDINNVTYVWGIVSWGENCGKPEFPGVYTRVANYFDWISYHVGRSLVSQHNV
[1]
  C4c EC50 (nM): 54 nM
[2]
  iC3b EC50: > 500 nM
[5]
  C4b Screen Ref Fold (fold vs CFI-HSA wild type): 6.24
[4]
  iC3b Screen Ref Fold (fold vs CFI-HSA wild type): 0.04
